Assay results taken from IntAct's records for PubMed 15983381.

B1: Parkinson disease protein 7 (Homo sapiens), Q99497 (parent)
chain: MASKRALVILAKGAEEMETVIPVDVMRRAGIKVTVAGLAGKDPVQCSRDVVICPDASLEDAKKEGPYDVVVLPGGNLGAQNLSESAAVKEILKEQENRKGLIAAICAGPTALLAHEIGFGSKVTTHPLAKDKMMNGGHYTYSENRVEKDGLILTSRGPGTSFEFALAIVEALNGKEVAAQVKAPLVLKD

Variants of: B1
Conditions: with daxx_human DAXX

Variant	effect of a mutation on the interaction
L166P	decreasing interaction
